Test results reported in article PMC3711457, “Control of DNA minor groove width and Fis protein binding by the purine 2-amino group” (Nucleic Acids Research, 2013).

What was measured:
Fis (wild type) [1] = target: T1, Fis (wild type) (UniProt P0A6R3 1-98); assay: X-ray crystallography; 2.8 A; EMSA with 50 ug/ml poly dI/dC as in ref 19; buffer, salt, pH and temperature not stated in the material; settings: protein: recombinant; chain copies: 2; label: 32P; duplex
Fis-K90A [2] = target: T2, Fis-K90A (UniProt P0A6R3 1-98, K90A); assay: EMSA; 50 ug/ml poly dI/dC; EMSA with 50 ug/ml poly dI/dC as in ref 19; buffer, salt, pH and temperature not stated in the material; settings: protein: recombinant; chain copies: 2; duplex
Fis (wild type) [3] = target: T1, Fis (wild type); assay: EMSA; 50 ug/ml poly dI/dC; 230-fold better than F29; half-life 5 min; EMSA with 50 ug/ml poly dI/dC as in ref 19; buffer, salt, pH and temperature not stated in the material; settings: protein: recombinant; chain copies: 2; label: 32P; duplex
[4] = target: the molecule itself; assay: crystal structure; Fis co-crystallized with DNA duplexes F28, F28-dI, F28-2AP and F29-dI; data collected at 100 K; molecular replacement with Fis-F1 (PDB 3IV5)
Fis (wild type) [5] = target: T1, Fis (wild type); assay: EMSA; 50 ug/ml poly dI/dC; EMSA with 50 ug/ml poly dI/dC as in ref 19; buffer, salt, pH and temperature not stated in the material; settings: protein: recombinant; chain copies: 2; duplex
Fis-K90A [6] = target: T2, Fis-K90A; assay: EMSA; 50 ug/ml poly dI/dC; essentially abolished; EMSA with 50 ug/ml poly dI/dC as in ref 19; buffer, salt, pH and temperature not stated in the material; settings: protein: recombinant; chain copies: 2; label: 32P; 27 bp duplex
Fis (wild type) [7] = target: T1, Fis (wild type); assay: X-ray crystallography; 2.7 A; EMSA with 50 ug/ml poly dI/dC as in ref 19; buffer, salt, pH and temperature not stated in the material; settings: protein: recombinant; chain copies: 2; label: 32P; 27 bp duplex
Fis (wild type) [8] = target: T1, Fis (wild type); assay: EMSA; 50 ug/ml poly dI/dC; 60-fold better than F28; half-life 14 min; EMSA with 50 ug/ml poly dI/dC as in ref 19; buffer, salt, pH and temperature not stated in the material; settings: protein: recombinant; chain copies: 2; label: 32P; 27 bp duplex
Fis-K90A [9] = target: T2, Fis-K90A; assay: EMSA; 50 ug/ml poly dI/dC; binding largely restored; EMSA with 50 ug/ml poly dI/dC as in ref 19; buffer, salt, pH and temperature not stated in the material; settings: protein: recombinant; chain copies: 2; label: 32P; 27 bp duplex
Fis (wild type) [10] = target: T1, Fis (wild type); assay: EMSA; 50 ug/ml poly dI/dC; high-affinity reference, Kd in figure only; EMSA with 50 ug/ml poly dI/dC as in ref 19; buffer, salt, pH and temperature not stated in the material; settings: protein: recombinant; chain copies: 2; label: 32P; 27 bp duplex
Fis-K90A [11] = target: T2, Fis-K90A; assay: EMSA; 50 ug/ml poly dI/dC; EMSA with 50 ug/ml poly dI/dC as in ref 19; buffer, salt, pH and temperature not stated in the material; settings: protein: recombinant; chain copies: 2; label: 32P; 27 bp duplex

B1: F28-2AP (dsDNA)
DNA 1: AAATTTGTTTGAATATTGAGCAAATTT
DNA 2: AAATTTGCTCAATATTCAAACAAATTT
modifications: 2-aminopurine in three central 2AP/T pairs (2T2), on both strands
Fis (wild type) [1]
  binding result: binds

B2: F30 (dsDNA)
DNA 1: AAAGCGGTTTGAATTTTGAGCCGCTTT
DNA 2: AAAGCGGCTCAAAATTCAAACCGCTTT
Fis-K90A [2]
  binding signal: 9 fold worse than Fis-wt

B3: F29-dI (dsDNA)
DNA 1: AAATTTGTTTGGGCGCTGAGCAAATTT
DNA 2: AAATTTGCTCAGCGCCCAAACAAATTT
modifications: inosine replaces the guanines of the five central G/C pairs (IICIC), on both strands
Fis (wild type) [3]
  binding signal: ~8 fold worse than F1

B4: Fis protein (natural protein)
chain: MFEQRVNSDVLTVSTVNSQDQVTQKPLRDSVKQALKNYFAQLNGQDVNDLYELVLAEVEQPLLDMVMQYTRGNQTRAALMMGINRGTLRKKLKKYGMN
notes: also called Fis-wt; wild-type Fis
[4]
  binding result: binds

B5: F27 (dsDNA)
DNA 1: AAATTTGTTTGAACTTTGAGCAAATTT
DNA 2: AAATTTGCTCAAAGTTCAAACAAATTT
Fis-K90A [2]
  binding signal: 10 fold worse than Fis-wt
Fis (wild type) [5]
  binding signal: ~1 fold of F1 (indistinguishable)

B6: F28 (dsDNA)
DNA 1: AAATTTGTTTGAGCGTTGAGCAAATTT
DNA 2: AAATTTGCTCAACGCTCAAACAAATTT
Fis-K90A [6]
  binding result: no binding
Fis (wild type) [7]
  binding result: binds

B7: F28-dI (dsDNA)
DNA 1: AAATTTGTTTGAGCGTTGAGCAAATTT
DNA 2: AAATTTGCTCAACGCTCAAACAAATTT
modifications: inosine replaces the guanines of the three central G/C pairs (ICI), on both strands
Fis (wild type) [8]
  Kd: < 1 nM
Fis-K90A [9]
  binding result: binds

B8: F1 (dsDNA)
DNA 1: AAATTTGTTTGAATTTTGAGCAAATTT
DNA 2: AAATTTGCTCAAAATTCAAACAAATTT
Fis (wild type) [10]
  binding result: binds
Fis-K90A [11]
  binding signal: ~1 fold of Fis-wt (indistinguishable)
